# According to the supplement of paper PMC12764529:
# ± gives the half width of the 95% confidence interval.
# Key:
# [1] = folding stability dG unfold (combined trypsin and chymotrypsin); higher = more stable
# Procedure, shortened: (§1)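 K50 was inferred by Bayesian fitting of sequencing counts obtained after protease digestion of designed mini-proteins. Unfolding free energy was derived by comparison with a sequence-predicted unfolded-state K50 and a shared folded-state K50, for each protease or both combined. The mini-proteins were under 80 residues, had no cysteine, were carried in a PA-tagged cDNA display construct, and were kept only if AlphaFold2 dimer inter-PAE exceeded 15.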
# [2] = folding stability dG unfold from trypsin proteolysis; higher = more stable
# Procedure, shortened: as §1
# [3] = folding stability dG unfold from chymotrypsin proteolysis; higher = more stable
# Procedure, shortened: as §1
Sequence,folding stability dG unfold [1] [kcal/mol],folding stability dG unfold [2] [kcal/mol],folding stability dG unfold [3] [kcal/mol]
SAGGSAGGSPAPDVTIEVKVTYDPETGALRIEVEATIPGGGKITIEYTIPPLDKIEIVGVKIESAGGSAGGS [r12_1029_TrMRF],3.6 ± 0.26,2.63 ± 0.15,3.83 ± 0.2
SAGGSAGGSAGGMPPGTVVRSEVVRTETFTETITLPSGETATTTVTTTTTTEVEVEQPLSAGGSAGGSAGGS [r10_297_JUSTAS],0.54 ± 0.22,0.233 ± 0.079,0.469 ± 0.047
SAGGSGMVRQEHEYRGPNGWHMRSEMYYSPENGMMNMEMEWVPVIKLPEDDPAKLKKLLAKEGIPISAGGSA [r2_304_TrROS],0.803 ± 0.17,0.119 ± 0.16,1.19 ± 0.099
SAMKKLTEEEIEKLAKELAKEGKVEIKIKVEKKVVKNKNGKKKEVTKVKIEIKAPPEAKKKLEKLKKKLSAG [r14_628_TrROS_Hall],0.359 ± 0.79,0.415 ± 0.34,0.992 ± 0.19
SAELKISKIDVSSLPDGSKKVTVNFSAPNFKVTITLDKSGNVSVEVSPEARKLPPEFFNLILNLAKELGSAG [r14_555_TrMRF],3.96 ± 0.1,3.64 ± 0.15,4.14 ± 0.1
SAGGSAGGSNMPIKNVELHPLPNGWYLIKIRYGGKTRTFLFPPGAPFEIPLPPGMEIDIYPLNSAGGSAGGS [r12_373_TrROS],3.84 ± 0.043,3.73 ± 0.066,3.933 ± 0.038
SAGGSAGGSMEPRPVVITFRDPEGNFIGTVELPAEFESEEEALAAAEAVRAANPGYTVEIEGLSAGGSAGGS [r20_201_JUSTAS],1.87 ± 0.07,1.67 ± 0.084,1.98 ± 0.033
SAGGSAGGSAGGSSMAIKKVSEFLLRPENGELIKVTVYRKPGPETIVTVIGDKTYTFEPSAGGSAGGSAGGS [r4_114_JUSTAS],0.0399 ± 0.1,-0.855 ± 0.25,0.336 ± 0.11
SAPKRYYIKIEIYDNGKKQEITIPIGATIKNPGGKEYTYPVDSPEDLEEALNDLFPPGFPIKIDDVHPPSAG [r14_41_TrROS],0.973 ± 0.11,0.517 ± 0.042,1.21 ± 0.17
SAGGSAGGSAGGGMAYTVETEVTLTPDGTRVVRTTVTIEDTEVEETHVTPVAPAAPEGLSAGGSAGGSAGGS [r10_898_JUSTAS],-0.231 ± 0.081,-0.806 ± 0.17,-0.079 ± 0.06
SAGGSADEELLEKAKEALKKAEPPKIVVLNLPLPSGKELKVTLDPTTNKFTAEFPDGGSKTFDFPESAGGSA [r15_977_JUSTAS],0.858 ± 0.12,1.05 ± 0.11,0.86 ± 0.096
SAGGSEILKKLFPNVKKIEIEVEEVEVKYSEEEKKANPNKKVKVEVKVKVKIKIKIELEFDKNGKLSAGGSA [r2_404_TrROS_Hall],3.09 ± 0.61,3.64 ± 0.19,1.92 ± 0.19
MEKVLILAKIKLKGPDGEEAEIDFAVEISPEEATPELLKKVREEAEEIAEALKEKGYEVELEVEVVKLGEES [r1_221_TrMRF],3.25 ± 0.65,3.62 ± 0.48,2.88 ± 0.24
SAGGMVIRVRFRETNETVTLSPEVLEALKRGDPDALRALPEEQREALARIERVEIRPAPPVRVLPEEESAGG [r13_233_TrROS_Hall],2.29 ± 0.43,2.63 ± 0.14,1.81 ± 0.14
SAGGSAGGSAAEASVVTFPGDLTAEVTKLPDGSYAVTVTFPENPGATATLTRTPDSVTVTPSAGGSAGGSAG [r3_170_JUSTAS],-0.342 ± 0.17,0.0476 ± 0.058,-1.1 ± 0.56
SAGGSAGGSASLDLSNATVLEEKTDPAKGLKTLTIKTPTSTLTITVEFDENGNPVKMTVFESAGGSAGGSAG [r3_5_JUSTAS],2.03 ± 0.048,1.71 ± 0.037,2.2 ± 0.057
MNLSDPVSVAKLKKALEEIKKAIEELKKKGKKIEILAIELNDDSIKITPVTKSEEYIKKKKEEGIEIILLLS [r1_134_JUSTAS],1.38 ± 0.2,1.52 ± 0.041,0.677 ± 0.37
SAGGSAGGSAGGPKAIVTEVEVEPNTGKARLKVKVYDPVTGKFSEFEVEVETTGKDLNLSAGGSAGGSAGGS [r10_173_TrMRF],1.89 ± 0.11,1.08 ± 0.049,2.37 ± 0.074
SAGGMIRVEDTSTSVSIDIEITPLPNGQYKATITTTTTSAKLLPNGTPVTTTTPTTSTVTITPDVPLLSAGG [r13_561_JUSTAS],1.12 ± 0.14,1.47 ± 0.053,0.681 ± 0.15
SAGGSAGGSAGEVVRVYPTPDGTTVTITPHPTTYTVTTTSPDGVPTTTPVSPAEVAALGLSAGGSAGGSAGG [r17_127_JUSTAS],-0.0994 ± 0.2,-0.0385 ± 0.09,-0.25 ± 0.3
SAGGSAGGSAGGDDDWRIMINIEIWPYPNYVRIRFPIMIIPPDGKLIGSVEVTFWIPANDSAGGSAGGSAGG [r7_812_TrROS],3.7 ± 0.38,3.2 ± 0.18,3.84 ± 0.37
